From the nanobody polyreactivity screen of Harvey et al. (2022)

Assay: yeast display, Sf9 membrane polyspecificity reagent, FACS + sequencing; frameworks hold sequencing errors
In short: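 Sorting gates, low and high (top ~1%), were placed on anti-HA fluorescence to track expression and on streptavidin fluorescence to track reagent binding. A clone's polyreactivity label is taken from the gate it came out of. The reagent was 10% biotinylated, detergent-solubilized Sf9 membrane, applied for 1 hour at 4 °C to galactose-induced yeast display cells.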

Sequence	polyreactivity (PSR sort gate)
QVQLVESGGGLVQAGGSLRLSCAASGFIFWRYAMGWYRQAPGKERELVASITSTGGSTYYADSVKGRFTISRDNAKNTVYLQMNSLKPEDTAVYYCAADTFVWADWSWHYYWGQGTQVTVSS	high polyreactivity
QVQLVESGGGLVQAGGSLRLSCAASGFIFWYNAMGWYRQAPGKERELVATISVASTYADSVKGRFTISRDNAKNTVYLQMNSLKPEDTAVYYCAADWAGWEGYRMDYWGQGTQVTVSS	low polyreactivity
QVQLVESGGGLVQAGGSLRLSCAASGFIFWYYAMGWYRQAPGKERELVAGITSGGSTNYADSVKGRFTISRDNAKNSVYLQMNSLKPEDTAVYYCAAAPYGGFGRGYDYWGQGTQVTVSS	high polyreactivity
QVQLVESGGGLVQAGGSLRLSCAASGFIFWYYAMGWYRQAPGKERELVARITRIGGRTYYADSVKGRFTISRDNAKNTVYLQMNSLKPEDTAVYYCAKDVDKYRYDYWGQGTQVTVSS	high polyreactivity
QVQLVESGGGLVQAGGSLRLSCAASGFIFYAYAMGWYRQAPGKERELVAAITGSGGRTYYADSVKGRFTISRDNAKNTVYLQMNSLKPEDTAVYYCAAYYTSGGSRTYDYWGQGTQVTVSS	high polyreactivity
QVQLVESGGGLVQAGGSLRLSCAASGFIFYAYAMGWYRQAPGKERELVAAITSSGSRTYYADSVKGRFTISRDNAKNTVYLQMNSLKPEDTAVYYCNARSGGVRYSNIGTEKYDYWGQGTQVTVSS	low polyreactivity
QVQLVESGGGLVQAGGSLRLSCAASGFIFYAYAMGWYRQAPGKERELVAGISDSGASTYADSVKGRFTISRDNAKNTVYLQMNSLKPEDTAVYYCATTGYLSTKVYDEYGYWGQGTQVTVSS	low polyreactivity
QVQLVESGGGLVQAGGSLRLSCAASGFIFYDYAMGWYRQAPGKEREMVAGITDSGGSTSYADSVKGRFTISRDNAKNTVYLQMNSLKPEDTAVYYCAADNYVRAGINYDYWGQGTQVTVSS	low polyreactivity
QVQLVESGGGLVQAGGSLRLSCAASGFIFYDYDMGWYRPAPGKERELVAAITYSGGSTYYADSVKGRFTISRDNAKNTVYLQMNSLKPEDTAVYYCAAVKSRYAEAVDYYYWGQGTQVTVSS	low polyreactivity
QVQLVESGGGLVQAGGSLRLSCAASGFIFYDYDMGWYRQAPGKERELVAAITYSGGSTYYADSVKGRFTISRDNAKNSVYLQMNSLKPEDTAVYYCAAVKSRYAEAVDYYYWGQGTQVNVSS	low polyreactivity
QVQLVESGGGLVQAGGSLRLSCAASGFIFYEYDMGWYRQAPGKEGELVAAISVSGGSTYYADSVKGRFTISRDNAKNTVYLQMNSLKPEDTAVYYCAVFLPDYGRYDYWGQGTQVTVSS	low polyreactivity
QVQLVESGGGLVQAGGSLRLSCAASGFIFYFYAMGWYRQAPGKERELVAAISYNGGSTYYADSVKGRFTISRDNAKNTVYLQMNSLKPEDTAVYYCNAVRNYAWGKMYSWGQGTQVTVSS	high polyreactivity
QVQLVESGGGLVQAGGSLRLSCAASGFIFYKNAMGWYRQAPGKERELVAAINWSGGSTYYADSVKGRFTISRDNAKNTVYLQMNSLKPEDTAVYYCAVVVYSGYRHYYWGQGTQVTVSS	high polyreactivity
QVQLVESGGGLVQAGGSLRLSCAASGFIFYKYAMGWYRQAPGKERELVAAISRSGSTYYADSVKGRFTISRDNAKNTVYLQMNSLKPDDTAVYYCNALTYFKRSEYYWGQGTQVTVSS	high polyreactivity
QVQLVESGGGLVQAGGSLRLSCAASGFIFYKYAMGWYRQAPGKERELVARISISGGRTYYADSVKGRFPISRDNAKNTVYLQMNSLKPEDTAVYYCATSPWWYGYAAYGMDYWGQGTQVTVSS	low polyreactivity
QVQLVESGGGLVQAGGSLRLSCAASGFIFYLNAMGWYRQAPGKERELVAAISRGGTTYYADSVKGRFTISRDNAKNTVYLQMNSLIPEDTAVYYCAAKDKRWYSRYYWTGYDYWGQGTQVTVSS	high polyreactivity
QVQLVESGGGLVQAGGSLRLSCAASGFIFYPYAMGWYRQAAGKERELVASIRRSTASTYYADSVKGRFTISRDNAKNTVYLQMNSLKPEDTAVYYCAARYRSYPKEYDYWGQGTEVTVSS	high polyreactivity
QVQLVESGGGLVQAGGSLRLSCAASGFIFYPYAMGWYRQAPGKERELVAAITGSGGSTYYADSVKGRFTISRDNAKNTVYLQMNSLKPEDTAVYYCAAYYGPRKMDYWGQGTQVTVSS	high polyreactivity
QVQLVESGGGLVQAGGSLRLSCAASGFIFYPYAMGWYRQAPGKERELVAVITSGGRTYYADSVKGRFTISRDNAKNTVYLQMNSLKPEDTAVYYCAARYGRIQWKANWPEYGYWGQGTQVTVSS	low polyreactivity
QVQLVESGGGLVQAGGSLRLSCAASGFIFYPYVMGWYRQAPGKERELVATIRTDGRTSYADSVKGRFTISRDNAKNTVYLQMNSLKPEDTAVYYCNTKYVRYYRRYDSWGQGTQVTVSS	high polyreactivity
QVQLVESGGGLVQAGGSLRLSCAASGFIFYQYAMGWYRQAPGKERELVAAISRRGGGTYYADSVKGRFTISRDNAKNTVYLQMNSLKPEDTAVYYCNTDRLARITFGGYDYWGQGTQVTVSS	high polyreactivity
QVQLVESGGGLVQAGGSLRLSCAASGFIFYRNAMGWYRQAPGKERELVAAISGSGGRTYYADSVNGRFTISRDNAKNTVYLQMNSLNPEDTAVYYCNAGLLYRGEYDYWGQGTQVTVSS	high polyreactivity

Sequence	polyreactivity (PSR sort gate)
QVQLVESGGGLVQAGGSLRLSCAASGFIFYRNTMGWYRQAPGKERELDAAISWSGARTYYADSVKGRFTISRDNAKNTVYLQMNSLKPEDTAVYYCNTVFYLHSTTTNGDYWGQGTQVTVSS	high polyreactivity
QVQLVESGGGLVQAGGSLRLSCAASGFIFYRWYALGWYIQAPGKERELVAAIRSGGSTYYADSVKGRFTISRDNAKNTVYLQMNSLKPEDTAVYYCSTSGPQYYSRHFDYWGEGTQVTVSS	low polyreactivity
QVQLVESGGGLVQAGGSLRLSCAASGFIFYRYAMGWYRPAPGKERELVAAISRSGGTTYYADSVKGRFTISRDNAKNTVYLQMNSLKPEDTAVYYCNVKRGTIGGYYYWGQGTQVTVSS	high polyreactivity
QVQLVESGGGLVQAGGSLRLSCAASGFIFYRYAMGWYRQAPGKERELVAAISKSGSSTYYADSVKGRFTISRDNAKNTVYLQMNSLKPEDTAVYYCARDRQSRSLLEYDYWGQGTQVTVSS	low polyreactivity
QVQLVESGGGLVQAGGSLRLSCAASGFIFYRYAMGWYRQAPGKERELVAAISWGGGSTTYYADSVKGRFTISRDNAKNTVYLQMNRLKPEDTAVYYCAAYIGKGYGSEYYYWGQGTQVTVSS	low polyreactivity
QVQLVESGGGLVQAGGSLRLSCAASGFIFYRYAMGWYRQAPGKERELVAVISGSGGRTYYADSVKGRFTISRDNAKNTVYLQMNSLKPEDTAVYYCAAVTRRRYYGHIYGYWGQGTQVTVSS	high polyreactivity
QVQLVESGGGLVQAGGSLRLSCAASGFIFYRYPMGWYRQAPGKERELVAAISYSGGSTYYADSVKGRFTISRDNAKNTVYLQMNSLKQEDTAVYYCARRQVYKFRRYDYWGQGTQVTVSS	high polyreactivity
QVQLVESGGGLVQAGGSLRLSCAASGFIFYRYVMGWYRQAPGKERELVAAITWSGGSTYYADSVKGRFTISRDNAKNTVYLQMNSLKPEDTAGNYCAAEWWLPSFGMDYWGQGTQVTVSS	low polyreactivity
QVQLVESGGGLVQAGGSLRLSCAASGFIFYRYVMGWYRQAPGKERELVAAITWSGGSTYYADSVKGRFTISRDNAKNTVYLQMNSLKPEDTAVYYCAAEWWLPSFGMDYWGQGTQVTVSS	low polyreactivity
QVQLVESGGGLVQAGGSLRLSCAASGFIFYSKAMGWYRQAPGKERELVAAISWGGGRTYYADSVKGRFTISRDNAKNTVYLQMNSLKPEDTAVYYCAAPWRRIGYSTRGYTLYDYWGQGTQVTVSS	high polyreactivity
QVQLVESGGGLVQAGGSLRLSCAASGFIFYSNAMGWYRQAPGKERELVAAISRRGGSTYYADSVKGRFTISRDNAKNTVYLQMNSLKPEDTAVYYCAATFKSGMDYWGQGTQVTVSS	high polyreactivity
QVQLVESGGGLVQAGGSLRLSCAASGFIFYSNDMGWYRQAPGKERELVAAITSSGGSTYYADSVKGRFTISRDNAKNTVYLQMNSLKPEDTAVYYCNADCTTFGLYSWGQGTQVTVSS	low polyreactivity
QVQLVESGGGLVQAGGSLRLSCAASGFIFYSYAMGWYRQAPGKERELVAAITEDGDSTYYADSVKGRFTISRDNAKNTVYLQMNSLKPEDTAVYYCNTDLTFNGTSGDYDYWGQGTQVTVSS	low polyreactivity
QVQLVESGGGLVQAGGSLRLSCAASGFIFYSYTMVWYRQAPGKERELVASISRRGGITYYADSVKGRFTISRDNAKNTVYLQMNILIPEDTAVFYCAAYSWRRQGDHYDYWGQGTKVTVSS	high polyreactivity
QVQLVESGGGLVQAGGSLRLSCAASGFIFYTYAIGWYRQAHGKERELVAAISRGGRTNYADSVKGRFTISRDNAKNSVYLQMNSLKPEDPAVYYCPSSYSHRYDYWGQGTQVTVSS	high polyreactivity
QVQLVESGGGLVQAGGSLRLSCAASGFIFYTYAMGWYIQAPGKERELVAAINTSGSTTNYADSVKGRFTISRDNAKNTVYLQMNSLKPEDTAVYYCAAEWNVSPYDYWGQGTQVTVSS	low polyreactivity
QVQLVESGGGLVQAGGSLRLSCAASGFIFYVKAMGWYRKAPGKERELVASITNGGSTTYADSVKGRFTISRDNAKNTDDLQMNSLKPEDTAVYYCHASGLDFSYFDEFNYWGQGTQVTVSS	low polyreactivity
QVQLVESGGGLVQAGGSLRLSCAASGFIFYYNAMGWYRPAPGTERELVATINNDGGSSTYADSVKGRFTISRDNAKNTVYLQMNSLKPEDTAVYYCNAEAFYFTHTVWIPYYYWGQGTQVTVLS	low polyreactivity
QVQLVESGGGLVQAGGSLRLSCAASGFIFYYNAMGWYRQAPGKERELVAAISSSAGSTYYADSVKGRFTISRDNAKNTVYLQMNSLKPEDTAVYYCNADSSYRTIDSASDYDYWGQGTQVTVSS	low polyreactivity
QVQLVESGGGLVQAGGSLRLSCAASGFIFYYNAMVWYRQAPGKERELVAAITDDGGGTYYADSVKGRFTISRDNAKNTVYLQMNSLKPEDTAVYYCAADGYNYEHDYWGQGTQVTVSS	low polyreactivity
QVQLVESGGGLVQAGGSLRLSCAASGFIFYYYAMGWYRQAPGKERELVAAITGSGGNTYYADSVKGRFTISRDNEKNSVFFHMNSLKPEDTAVYYCNTGYDRGGDYWGQGTQVTVSS	high polyreactivity
